According to paper PMC9352680, “A comprehensive thermodynamic model for RNA binding by the Saccharomyces cerevisiae Pumilio protein PUF4”:

Molecular target: T1, PUF4 RNA-binding domain (Saccharomyces cerevisiae, UniProt P25339 537-888)
T1 sequence: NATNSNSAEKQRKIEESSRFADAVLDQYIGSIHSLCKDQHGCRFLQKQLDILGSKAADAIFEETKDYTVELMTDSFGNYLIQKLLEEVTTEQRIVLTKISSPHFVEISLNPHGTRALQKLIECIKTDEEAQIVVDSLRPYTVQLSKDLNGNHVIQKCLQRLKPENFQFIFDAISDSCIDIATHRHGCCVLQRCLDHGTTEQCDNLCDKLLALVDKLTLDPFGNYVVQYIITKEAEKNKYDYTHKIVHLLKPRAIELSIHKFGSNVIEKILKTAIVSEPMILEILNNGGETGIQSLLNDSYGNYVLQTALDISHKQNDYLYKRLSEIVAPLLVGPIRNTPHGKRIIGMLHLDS
Experiment: Mg; RNA-MaP; 20 mM Na-HEPES pH 7.4, 30 mM KOAc, 0.75 mM MgCl2, 0.1% Tween-20, 5% glycerol, 0.1 mg/mL BSA, 2 mM DTT; 25 C; 0.0125-409.6 nM protein
Details: tags: N-His6-TEV cleaved; C-SNAP kept, Cy3B-labelled; label: tethered on chip by stalled RNA polymerase

Question: For UCUCUUUCUUGUAUUAUUAAAUCUCUU (ssRNA) [Id_iii_S1_P5E.5_K5.1_C5.3_H5.1_A5.1_F5.1_T5.2_[T11A]], which Kd is on record?
Answer: 11.1 nM

Question: For UCUCUUUAUACACUUAUUAUAUCUCUU (ssRNA) [Id_iii_S1_P5E.7_K5.3_C5.3_[C-2A]_H5.3_A5.1_F5.1_T5.2], which Kd is on record?
Answer: 720 nM

Question: Which Kd does the source give for UCUCUUACUACACUUAUUAUAUCUCUU (ssRNA) [Id_iii_S1_P5E.7_K5.3_C5.3_[T-3A]_H5.3_A5.1_F5.1_T5.2] here?
Answer: 1570 nM

Question: Which Kd does the source give for UCUCUUUCUUGUAUUUUAAUUCUCUU (ssRNA) [Id_iii_S1_P4E.8_K4.4_C4.3_H4.1_A4.2_F4.1_T4.2_[G10A]] here?
Answer: 3.62 nM

Question: For UCUCUUUCUUGUAUUUUAGCUCUCUU (ssRNA) [Id_iii_S1_P4E.8_K4.4_C4.3_H4.1_A4.2_F4.1_T4.2_[T11C]], which Kd is on record?
Answer: 1.07 nM

Question: With UCUCUUUCUUGUAUUUUAUUUCUCUU (ssRNA) [Id_iii_S1_P4E.8_K4.4_C4.3_H4.1_A4.2_F4.1_T4.2_[G10T]] as the binder, how does the Kd read?
Answer: 2.43 nM

Question: For UCUCUUUGUGUUUUUAUCUCUU (ssRNA) [Ib_S1_P5E.1_K5.1_C5.1_H5.1_[A4G]_A5.1_[A7T]_F5.1_T5.1], which Kd is on record?
Answer: 26.8 nM

Question: With UCUCUUUGUUGUAUUUAAGUUCUCUU (ssRNA) [Id_iii_S1_P4E.9_K4.5_C4.3_[C-2G]_H4.1_A4.2_F4.2_T4.2] as the binder, how does the Kd read?
Answer: 155 nM

Question: For UCUCUUUCUUAUAUUAUUAAAUCUCUU (ssRNA) [Id_iii_S1_P5E.6_K5.2_C5.3_H5.2_A5.1_F5.1_T5.2_[T11A]], which Kd is on record?
Answer: 551 nM

Question: For UCUCUUUCUUGUAUUUAACUUCUCUU (ssRNA) [Id_iii_S1_P4E.9_K4.5_C4.3_H4.1_A4.2_F4.2_T4.2_[G10C]], which Kd is on record?
Answer: 70.1 nM

Question: For UCUCUUUCCACACUUAUUAUAUCUCUU (ssRNA) [Id_iii_S1_P5E.7_K5.3_C5.3_[T-1C]_H5.3_A5.1_F5.1_T5.2], which Kd is on record?
Answer: > 2300 nM

Question: For UCUCUUUCUUGUAUUUAAAUUCUCUU (ssRNA) [Id_iii_S1_P4E.9_K4.5_C4.3_H4.1_A4.2_F4.2_T4.2_[G10A]], which Kd is on record?
Answer: 96.9 nM

Question: With UCUCUUUCUUGUAUUAUUAUUUCUCUU (ssRNA) [Id_iii_S1_P5E.5_K5.1_C5.3_H5.1_A5.1_F5.1_T5.2_[A12T]] as the binder, how does the Kd read?
Answer: 4.34 nM

Question: For UCUCUUUGUAUUUUUAUCUCUU (ssRNA) [Ia_S1_P5E.1_K5.1_C5.1_H5.1_A5.1_[A7T]_F5.1_T5.1], which Kd is on record?
Answer: 3.57 nM

Question: How did the Kd turn out when UCUCUUCCUACACUUAUUAUAUCUCUU (ssRNA) [Id_iii_S1_P5E.7_K5.3_C5.3_[T-3C]_H5.3_A5.1_F5.1_T5.2] was run?
Answer: > 2300 nM

Question: Which Kd does the source give for UCUCUUUCUUAUAUUAUUAUCUCUCUU (ssRNA) [Id_iii_S1_P5E.6_K5.2_C5.3_H5.2_A5.1_F5.1_T5.2_[A12C]] here?
Answer: 471 nM

Question: For UCUCUUUGUUUAAUUAUCUCUU (ssRNA) [Ib_S1_P5E.1_K5.1_C5.1_H5.1_[A4T]_A5.1_[T6A]_F5.1_T5.1], which Kd is on record?
Answer: 44.6 nM

Question: How did the Kd turn out when UCUCUUUCUUAUAUUAUUAUUUCUCUU (ssRNA) [Id_iii_S1_P5E.6_K5.2_C5.3_H5.2_A5.1_F5.1_T5.2_[A12T]] was run?
Answer: 372 nM

Question: UCUCUUUGUUUCAUUAUCUCUU (ssRNA) [Ib_S1_P5E.1_K5.1_C5.1_H5.1_[A4T]_A5.1_[T6C]_F5.1_T5.1] was tested. Which Kd did it give?
Answer: 24.4 nM

Question: How did the Kd turn out when UCUCUUUCUUGUAUUAUUAUGUCUCUU (ssRNA) [Id_iii_S1_P5E.5_K5.1_C5.3_H5.1_A5.1_F5.1_T5.2_[A12G]] was run?
Answer: 8.55 nM

Question: Which Kd does the source give for UCUCUUUCGUGUAUUUAAGUUCUCUU (ssRNA) [Id_iii_S1_P4E.9_K4.5_C4.3_[T-1G]_H4.1_A4.2_F4.2_T4.2] here?
Answer: 694 nM

Question: UCUCUUUCUUAUAUUAUUACAUCUCUU (ssRNA) [Id_iii_S1_P5E.6_K5.2_C5.3_H5.2_A5.1_F5.1_T5.2_[T11C]] was tested. Which Kd did it give?
Answer: 450 nM

Question: Which Kd does the source give for UCUCUUUCUUGUAUUAUUAUCUCUCUU (ssRNA) [Id_iii_S1_P5E.5_K5.1_C5.3_H5.1_A5.1_F5.1_T5.2_[A12C]] here?
Answer: 6 nM

Question: With UCUCUUUUUUGUAUUUAAGUUCUCUU (ssRNA) [Id_iii_S1_P4E.9_K4.5_C4.3_[C-2T]_H4.1_A4.2_F4.2_T4.2] as the binder, how does the Kd read?
Answer: 618 nM

Question: With UCUCUUUCAUGUAUUUAAGUUCUCUU (ssRNA) [Id_iii_S1_P4E.9_K4.5_C4.3_[T-1A]_H4.1_A4.2_F4.2_T4.2] as the binder, how does the Kd read?
Answer: 648 nM

Question: UCUCUUUGUACACUUAUUAUAUCUCUU (ssRNA) [Id_iii_S1_P5E.7_K5.3_C5.3_[C-2G]_H5.3_A5.1_F5.1_T5.2] was tested. Which Kd did it give?
Answer: 3.9 nM

Question: UCUCUUUCCUGUAUUUAAGUUCUCUU (ssRNA) [Id_iii_S1_P4E.9_K4.5_C4.3_[T-1C]_H4.1_A4.2_F4.2_T4.2] was tested. Which Kd did it give?
Answer: 460 nM
